This note sets out measurements from article PMC7060258, “A new multigene HCIQ subfamily from the sea anemone Heteractis crispa encodes Kunitz-peptides exhibiting neuroprotective activity against 6-hydroxydopamine” (Scientific Reports, 2020).

First the molecules themselves.
B3: recombinant HCIQ2c1 Kunitz-type peptide from Heteractis crispa (peptide, UniProt A0A6B7FBD3 28-85, looked up)
chain: IQGNICSEPKKVGRCRGSFPRFYFDSETGKCTPFIYGGCGGNGNNFETLHACRAICRA
notes: HCIQ2c1, Kunitz-type peptide of the sea anemone Heteractis crispa; mature peptide of 58 aa (precursor 85 aa: signal peptide 22 aa, propeptide 5 aa ending in Lys-Arg at 26-27, mature peptide 58 aa); begins with Ile-Gln; measured mass 6330 Da; numbers count on: the mature protein; also called rHCIQ2c1; source: E. coli BL21 (DE3), thioredoxin fusion, purified (Ni-NTA, CNBr cleavage, RP-HPLC)

Holding throughout (settings): both partners purified
For test [1], the target named is B3. Briefly: SPR; Biacore 3000; peptides covalently immobilised on a CM4 chip (970 RU rHCIQ2c1, 460 RU rHCIQ4c7); proteinases 1 nM to 5 μM flowed over; 25 °C; HBS: 0.15 M NaCl, 0.01 M HEPES, pH 7.4. On the technique in general: SPR reads the build-up and loss of mass on a sensor chip optically.
Test [2] addresses trypsin. As to the kind of experiment: enzyme inhibition (Dixon method); trypsin 208 nM, substrate BAPNA 0.6 and 1.2 mM, peptide 0–26.6 µM (rHCIQ2c1) or 0–24 µM (rHCIQ4c7); three parallel experiments.
The target of test [3] is T1, human neutrophil elastase (human, UniProt P08246 30-267).
T1 sequence (looked up): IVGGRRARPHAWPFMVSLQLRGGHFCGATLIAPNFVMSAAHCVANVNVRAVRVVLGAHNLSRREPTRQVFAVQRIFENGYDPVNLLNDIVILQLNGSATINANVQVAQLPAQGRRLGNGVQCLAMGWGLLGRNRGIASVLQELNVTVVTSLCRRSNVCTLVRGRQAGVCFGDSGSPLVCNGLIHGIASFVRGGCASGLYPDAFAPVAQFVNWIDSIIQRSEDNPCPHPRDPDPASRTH
As to the kind of experiment: SPR; Biacore 3000; peptides covalently immobilised on a CM4 chip (970 RU rHCIQ2c1, 460 RU rHCIQ4c7); proteinases 1 nM to 5 μM flowed over; 25 °C; HBS: 0.15 M NaCl, 0.01 M HEPES, pH 7.4.

No end group written: not given here.

Chain of trypsin (P00760 24-246): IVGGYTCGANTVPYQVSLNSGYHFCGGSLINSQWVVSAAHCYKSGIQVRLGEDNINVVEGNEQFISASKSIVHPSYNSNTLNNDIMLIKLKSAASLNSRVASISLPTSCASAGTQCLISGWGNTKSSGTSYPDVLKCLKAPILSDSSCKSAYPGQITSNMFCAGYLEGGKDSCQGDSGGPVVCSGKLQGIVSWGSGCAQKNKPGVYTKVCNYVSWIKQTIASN

B1: pancreatic kallikrein (enzyme)
chain: not shown
modifications: Species and supplier are not given; porcine pancreatic kallikrein is assumed as the usual commercial enzyme. Limits are the active chain of the candidate entry. The natural enzyme is glycosylated …
Broadly, the Kd is the constant that tells how readily two partners part at equilibrium. As a reminder, the koff is the rate constant with which the complex falls apart. By kon is commonly meant the second-order rate constant of association. Take B1: in test [1], the Ka worked out at 2.04e+06 M⁻¹, the Kd stood at 490 nM, the koff stood at 0.00379 s⁻¹ and the on-rate constant (kon) is 49400 M⁻¹ s⁻¹.

B2: recombinant HCIQ4c7 Kunitz-type peptide from Heteractis crispa (peptide)
chain: IQGNICSEPKKVGRCRESFPRFYFDSETGKCTPFIYGGCGGNGNNFETLHACRAICRA
modifications: not fully specified; cysteine pairing not given here
In general, Ki refers to the equilibrium dissociation constant of an inhibitor or competing ligand from its target. A high value points to weaker binding. For B2, the inhibitory constant (Ki) in test [2] was determined as 190 nM. Besides, in test [3], the Ka was 1.05e+06 M⁻¹, the Kd is 955 nM, the koff is 0.0114 s⁻¹ and the kon amounted to 11900 M⁻¹ s⁻¹.
B3 came in with an inhibition constant Ki in test [2] of 52 nM. For the same molecule, in test [3], the Ka came to 7.9e+06 M⁻¹, the Kd is 127 nM, the koff was found to be 0.00861 s⁻¹ and the on-rate (kon) is 68000 M⁻¹ s⁻¹.
